Paper PMC9328939, “A Randomized Double‐Blind Placebo‐Controlled First‐In‐Human Phase 1 Trial of TransCon PTH in Healthy Adults” (Journal of Bone and Mineral Research, 2020)

Assays:
healthy adults [1] = assay: Pharmacodynamics: albumin-adjusted serum calcium (sCa); type: in vivo, human
Experimental: (§1) Subjects attended a screening visit; those who met eligibility criteria were randomly assigned to a SAD or MAD cohort (n = 10/cohort; eight active and two placebo) and received a single or multiple dose(s) of TransCon PTH, respectively, via a syringe and 31G 8‐mm needle s.c. to the abdomen. […] Multiple TransCon PTH doses administered daily for 10 days ranged from 3.5 to 24 μg PTH(1‐34)/day. Throughout drug administration and for 4 days following the final dose, subjects remained housed for laboratory tests and safety monitoring.
(§2) The PD endpoints included albumin‐adjusted sCa, fractional excretion of calcium, sP, renal tubular maximum reabsorption of phosphate/glomerular filtration rate (TMP/GFR), intact endogenous PTH(1‐84), osteoblastic bone formation markers (serum bone‐specific alkaline phosphatase [BSAP] and P1NP), osteoclastic bone resorption markers (urine NTx and serum CTx), sMg, and 1,25‐dihydroxyvitamin D. PK samples were collected predose and at regular intervals postdose through 96 hours for the SAD cohorts and through day14 for the MAD cohorts.
Safety and PD samples were collected and analyzed by a local laboratory (SydPath Clinical Trials, Darlinghurst, Australia).

healthy adults [2] = assay: Pharmacodynamics: serum magnesium (sMg); type: in vivo, human; conditions: MAD cohorts; data not shown
healthy adults [3] = assay: Pharmacodynamics: suppression of intact endogenous PTH(1-84); type: in vivo, human
Experimental: as §2

[4] = system: anti-PTH binding antibodies; assay: Anti-PTH binding antibodies, electrochemiluminescence bridging assay; type: in vivo, human; conditions: MAD cohorts, serum predose and day 14; screening and confirmatory assay
Experimental: Twice‐daily 12‐hour urine samples (including calcium, phosphorus, magnesium, and creatinine) were also collected. In MAD cohorts, serum samples collected from TransCon PTH‐treated and placebo‐treated subjects predose and postdose on day 14 were analyzed for anti‐PTH binding antibodies by BioAgilytix (Durham, NC, USA) using an electrochemiluminescence bridging assay. Samples were analyzed using a multitiered approach consisting of a screening assay and a confirmatory assay.

healthy adults [5] = conditions: in vivo
Experimental: as §1
At screening, demographic information, medical history, and concomitant medications, vital signs with height and weight, hematology, blood chemistry (including sCa, sP, and sMg), intact endogenous PTH(1‐84), 1,25‐dihydroxyvitamin D, and urine samples were collected. In addition, a limited physical examination and electrocardiogram (ECG) were performed.
Via regular vital sign checks, physical examinations, and safety laboratory tests, subjects were also monitored for adverse events (AEs) throughout the trial, including injection site reactions (erythema, ecchymosis, edema, pruritus, and pain).

[6] = Pharmacokinetics of Free PTH after 10 daily s.c. doses of TransCon PTH (MAD cohorts); conditions: for Free PTH AUC0-24h / Free PTH t½ / Free PTH Cmax: geometric mean (CV%); for Free PTH tmax: median (min-max)
Experimental: Subjects attended a screening visit; those who met eligibility criteria were randomly assigned to a SAD or MAD cohort (n = 10/cohort; eight active and two placebo) and received a single or multiple dose(s) of TransCon PTH, respectively, via a syringe and 31G 8‐mm needle s.c. to the abdomen. Single TransCon PTH doses ranged from 3.5 to 124 μg PTH(1‐34) (containing PTH(1‐34) [Bachem AG, Bubendorf, Switzerland], identical to the first 34 amino acids of rhPTH). Multiple TransCon PTH doses administered daily for 10 days ranged from 3.5 to 24 μg PTH(1‐34)/day.
The primary PK endpoints therefore included Free PTH (defined as the sum of Free PTH(1‐34) and Free PTH(1‐33)) as well as TransCon PTH.
The PK samples were analyzed by PRA Health Sciences (Assens, the Netherlands); Free PTH was quantified using protein precipitation, liquid‐liquid extraction, and solid‐phase extraction followed by ultra high‐performance liquid chromatography with tandem mass spectrometry detection measuring the two peptides, PTH(1‐34) and PTH(1‐33), by collection of both transitions simultaneously. Free PTH was calculated only if samples contained quantifiable levels of both Free PTH(1‐34) and Free PTH(1‐33); ie, above 1.40 and 0.958 pg/mL for Free PTH(1‐34) and Free PTH(1‐33), respectively. No lower limit of quantification was calculated for Free PTH because the ratio between Free PTH(1‐34) and Free PTH(1‐33) is not constant.
The PK parameters were calculated using Phoenix WinNonlin, version 6.4 (Certara USA, Inc., Princeton, NJ, USA). For Free PTH, tmax was defined as the time to maximum observed concentration and Cmax was defined as the maximum observed concentration. […] Peak‐to‐trough was calculated as the ratio of Cmax to C24h at steady‐state.

[7] = MAD, 12 μg PTH(1-34)/day s.c. x 10 days, n = 6
[8] = MAD, 16 μg PTH(1-34)/day s.c. x 10 days, n = 7
[9] = MAD, 20 μg PTH(1-34)/day s.c. x 10 days, n = 6
[10] = MAD, 24 μg PTH(1-34)/day s.c. x 10 days, n = 3

For “TransCon PTH: long-acting, essentially inactive prodrug: PTH(1-34) transiently bound to an inert 40 kDa mPEG carrier via a proprietary autocleaving linker”, the “albumin-adjusted sCa on day 11” value (healthy adults [1]; MAD, 24 μg PTH(1-34)/day x 10 days, n = 8, mean (± SD as printed), baseline 9.60 ± 0.06) was 10.63 ± 0.22 mg/dL, the “albumin-adjusted sCa on day 2” value (healthy adults [1]; SAD, single s.c. 124 μg PTH(1-34), n = 8, mean ± SD as printed, baseline 9.43 ± 0.09) was 10.97 ± 0.20 mg/dL and the “change in serum magnesium (sMg)” value (healthy adults [2]) was “nonsignificant increase”. For the same substance, the “intact endogenous PTH(1-84)” value (healthy adults [3]; MAD cohorts, daily doses x 10 days) was “dose‐dependent suppression”, the “intact endogenous PTH(1-84)” value (healthy adults [3]; SAD cohorts, data not shown) was “dose‐dependent suppression” and the anti-PTH antibodies [4] was “No anti‐PTH antibodies were detected”. The “treatment-emergent AE: upper respiratory tract infections” value (healthy adults [5]) was 6%, the “Free PTH AUC0-24h” value ([6]; MAD, 12 μg PTH(1-34)/day s.c. x 10 days, healthy adults, plasma, UHPLC-MS/MS, n = 5) was 122 (13.4) (n = 5) h*pg/mL and the “Free PTH t½” value ([6]; MAD, 12 μg PTH(1-34)/day s.c. x 10 days, n = 4) was 64.8 (39.2) (n = 4) h. For the same substance, the “Free PTH Cmax” value [6, 7] was 6.24 (13.1) (n = 6) pg/mL, the “Free PTH tmax” value [6, 7] was 4.0 (4.0–16.0) (n = 6) h and the “Free PTH t½” value ([6]; MAD, 16 μg PTH(1-34)/day s.c. x 10 days, n = 4) was 60.0 (20.3) (n = 4) h. The “Free PTH AUC0-24h” value ([6]; MAD, 16 μg PTH(1-34)/day s.c. x 10 days, n = 5) was 152 (9.4) (n = 5) h*pg/mL, the “Free PTH Cmax” value [6, 8] was 6.87 (16.8) (n = 7) pg/mL and the “Free PTH tmax” value [6, 8] was 8.0 (4.0–12.0) (n = 7) h. The “Free PTH t½” value ([6]; MAD, 20 μg PTH(1-34)/day s.c. x 10 days, n = 5) was 51.7 (44.5) (n = 5) h, the “Free PTH AUC0-24h” value [6, 9] was 165 (21.7) (n = 6) h*pg/mL and the “Free PTH Cmax” value [6, 9] was 8.30 (21.4) (n = 6) pg/mL. For the same substance, the “Free PTH tmax” value [6, 9] was 6.1 (4.0–16.1) (n = 6) h, the “Free PTH AUC0-24h” value [6, 10] was 231 (24.2) (n = 3) h*pg/mL and the “Free PTH Cmax” value [6, 10] was 11.1 (27.6) (n = 3) pg/mL. The “Free PTH t½” value [6, 10] was 69.0 (22.3) (n = 3) h, the “Free PTH tmax” value [6, 10] was 7.9 (4.0–12.0) (n = 3) h and the “Free PTH level” value ([6]; MAD, TransCon PTH 12 μg PTH(1-34)/day) was 5 pg/mL. The “mean effective half-life of Free PTH” value ([6]; after multiple daily s.c. dosings, healthy adults) was “approximately 60 hours”.
